Source: publication PMC7591906, “pHLIP ICG for delineation of tumors and blood flow during fluorescence-guided surgery” (Scientific Reports, 2020)
Entries after “also recorded” stand apart in the source; their conditions may differ. Peptide text beside a SMILES is read from it. * marks the point of attachment. X1 = CC1(C)C(/C=C/C=C/C=C/C=C2/N(CCCCCC(=O)NCCN3C(=O)CC(*)C3=O)c3ccc4ccccc4c3C2(C)C)=[N+](CCCCS(=O)(=O)[O-])c2ccc3ccccc3c21

What was measured:
[1] = pH-dependent insertion into POPC liposomes (circular dichroism at 222 nm); format: physicochemical; conditions: 5 µM pHLIP ICG, 750 µM POPC liposomes, CD 222 nm, 25.0°C, Henderson-Hasselbalch fit
Procedure: POPC (1-palmitoyl-2-oleoyl-sn-glycero-3-phosphocholine, Avanti Polar Lipids, Inc.) liposomes were used in biophysical measurements to mimic cell membranes and investigate the pHLIP ICG interactions with lipid bilayers. Large unilamellar vesicles (LUVs) were prepared by extrusion. POPC dissolved in chloroform was desolvated in a rotary evaporator and placed under high vacuum for 2 hours to create a phospholipid film. Lipids were then rehydrated in phosphate buffer (pH8) and repeatedly extruded through membranes with a pore size of 100 nm to make LUVs.
Circular dichroism (CD) measurements were employed to monitor the pH-dependent insertion of pHLIP ICG into the membrane of POPC liposomes and the formation of helical structure. […] CD spectra were recorded from 200 to 260 nm with steps of 1 nm. The pH-dependent insertion of pHLIP ICG into the lipid bilayer of POPC liposomes was studied by monitoring the changes in the molar ellipticity (measured in millidegrees) at 222 nm as a function of pH. After the addition of aliquots of citric acid, the pHs of solutions containing 5 μM pHLIP ICG and 750 µM POPC liposomes were measured using an Orion PerHecT ROSS Combination pH Micro Electrode and an Orion Dual Star pH and ISE Benchtop Meter before and after each spectrum measurement to ensure that equilibrium is achieved. […]

[2] = test system: human mammary epithelial cells (HMEpC); test: Cytotoxicity, cell viability (CellTiter 96 AQueous One); format: cell-based; conditions: 0.125 up to 16 µM, 72 h, absorbance 490 nm, triplicate
Procedure: Human mammary epithelial cells (HMEpC) acquired from Cell Applications, Inc. were authenticated and stored according to supplier’s instructions. Cells were cultured in mammary epithelial cell growth medium provided by the manufacturer. HMEpC cells were loaded in the wells of 96-well plates (~6,000 cells per well) and incubated overnight. Increasing amounts of pHLIP ICG dissolved in cell growth medium were added to cells to give the following final concentrations of pHLIP ICG with cells: 0.125, 0.25, 0.5, 1, 2, 4, 8 and 16 μM. After 48 and 72 hours of incubation, a colorimetric reagent (CellTiter 96 AQueous One Solution Assay, Promega) was added for 2 hours followed by measuring absorbance at 490 nm to assess cell viability. All samples were prepared in triplicate and each experiment was repeated several times.

[3] = Pharmacokinetics in mice, single i.v. injection; format: in vivo, B6D2F1 mice; conditions: single i.v. 12.3 mg/kg
Procedure: The purpose of this study, performed at MSK, was to determine the pharmacokinetic parameters of pHLIP ICG in 3 female B6D2F1 mice following a single i.v. injection of pHLIP ICG at a dose of 12.3 mg/kg. Blood was collected in EDTA tubes at 5, 15, 30 minutes, and 1, 2, 4, 6, 8, 16, and 24 hours post-injection, followed by centrifugation to separate the plasma, and flash frozen. At time of analysis, samples were thawed, extracted, and analyzed via LC-MS as per the validated protocol using pHLIPIS.

[4] = Imaging of blood vessels in pigs; format: in vivo; conditions: i.v. 0.052 + 0.12 + 0.24 mg/kg, Stryker 1688 AIM and SPY-PHI
Procedure: Pigs (50 kg) received pHLIP ICG dissolved in PBS or PBS containing 5% Ethanol. Three doses of pHLIP ICG were administered (dose level 1 is 0.052 mg/kg of pHLIP ICG, dose level 2 is an additional administration of 0.12 mg/kg of pHLIP ICG and dose level 3 is an additional administration of 0.24 mg/kg of pHLIP ICG). Each dose was injected intravenously in one bolus followed by a saline flush. Endoscopical and exoscopical imaging was performed at the same time and up to 2 hrs after pHLIP ICG administration. Endoscopic imaging was carried out using the Stryker 1688 system with the L11 light source (808 nm excitation) and adjustable gain. […] Images and video were recorded on a Stryker Connected OR Hub device. […] The overlay mode captures an NIR frame and a white light frame and combines the two to allow surgeons to have the best fluorescence reference (green) while still operating. […] The ENV mode contains the white light frame data in a black/white mode and overlays the fluorescence signal in green to provide a hybrid mode that allows a higher signal-to-noise ratio view of the fluorescence image while still retaining enough of a view of the surrounding tissue to allow the surgeon to continue to operate. The SPY-PHI system has three infrared imaging modes: Overlay, Contrast, and CSF (color-segmented fluorescence). […]

[5] = Cardiovascular telemetry study in conscious Beagle dogs (GLP); format: in vivo; conditions: male dogs, single i.v. bolus 0.072, 0.36, 1.44 mg/kg, up to 24 h post-dose
Procedure: The objective of this GLP study performed at CRL was to evaluate the potential cardiovascular effects of pHLIP ICG in instrumented dogs when administered by i.v. bolus injection using a Latin square design.
Each of the four male dogs received a dose of Reference Item (5 % Ethanol in Phosphate buffered saline (PBS), pH of 7.4 ± 0.2) and three dose levels of pHLIP ICG (0.072, 0.36, and 1.44 mg/kg), with a 7-day washout period between each dose. The dose was administered by i.v. bolus injection at a dose volume of 2.5 mL/kg.
The following cardiovascular parameters were evaluated for all animals from 2 hours prior and up to 24 hours post each dose: systemic blood pressures (systolic, diastolic, mean arterial, and pulse pressure), heart rate, body temperature, and electrocardiographic duration/intervals (PR, QRS, QT, and QTc). Qualitative evaluation of the electrocardiographic waveforms was performed twice prior to each dose (at least 30 minutes apart) and at 5, 15, and 30 minutes, 1, 2, 3, 4, 6, 12, and 24 hours post-dose. Additional evaluations consisted of mortality and clinical observations. There were no mortalities or pHLIP ICG related clinical signs throughout the course of the study.

## CC(C)C[C@H](NC(=O)[C@H](Cc1ccc(O)cc1)NC(=O)[C@H](C)NC(=O)[C@H](CCCNC(=N)N)NC(=O)[C@H](Cc1c[nH]c2ccccc12)NC(=O)[C@@H]1CCCN1C(=O)[C@H](CC(N)=O)NC(=O)[C@H](CCC(N)=O)NC(=O)[C@H](CC(=O)O)NC(=O)[C@H](CC(=O)O)NC(=O)[C@H](CSC1CC(=O)N(CCNC(=O)CCCCCN2/C(=C/C=C/C=C/C=C/C3=[N+](CCCCS(=O)(=O)[O-])c4ccc5ccccc5c4C3(C)C)C(C)(C)c3c2ccc2ccccc32)C1=O)NC(=O)[C@H](C)N)C(=O)N[C@@H](CC(=O)O)C(=O)N[C@@H](CC(C)C)C(=O)N[C@@H](CC(C)C)C(=O)N[C@@H](Cc1ccccc1)C(=O)N1CCC[C@H]1C(=O)N[C@H](C(=O)N[C@@H](CC(=O)O)C(=O)N[C@H](C(=O)N[C@@H](CC(C)C)C(=O)N[C@@H](CC(C)C)C(=O)N[C@@H](CC(C)C)C(=O)N[C@@H](CC(=O)O)C(=O)N[C@@H](CC(C)C)C(=O)N[C@@H](CC(C)C)C(=O)N[C@@H](Cc1c[nH]c2ccccc12)C(=O)N[C@@H](C)C(=O)O)[C@@H](C)O)[C@@H](C)O (some centres unmarked) [pHLIP ICG] (H-AC(X1)DDQNPWRAYLDLLFPTDTLLLDLLWA-OH)
[1]
  Midpoint of the transition (pK) of insertion into liposomes: 6.3 pH
[2]
  Cytotoxic effect (cell viability): did not show any cytotoxic effect at any tested concentration
[3]; female, B6D2F1, mouse, plasma, iv, mean, read-out: Clearance (Cl) (converted)
  clearance: 0.159 mL/min/kg
[3]; female, B6D2F1, mouse, plasma, iv, mean, read-out: Elimination half-time (T1/2) (converted)
  half-life: 3.9 h
[3]; female, B6D2F1, mouse, plasma, iv, mean, read-out: Volume of distribution (Vz)
  Vd: 0.0535 L/kg
[3]; LC-MS
  Systemic exposure quantifiable up to: up to 16 hours
[4]
  Visibility of illuminated blood vessels: clearly visible at 2 h post-injection
[5]
  Cardiovascular effects: no observable effect on systemic blood pressures, heart rate, body temperature, electrocardiographic intervals; also recorded: no effect on systemic blood pressures, heart rate, body temperature, electrocardiographic intervals, or qualitative ECG parameters
